Consider three molecules from PMC2683335 (The Journal of biological chemistry, 2008).

The target of data set [1] is MthMCM RR137,160AA double mutant (Methanothermobacter thermautotrophicus). Description: AUC.
Data set [2] has as its target MthMCM R137A mutant (Methanothermobacter thermautotrophicus). Description: negative-stain electron microscopy.
The data set “AUC” concerns the molecule itself. Description: AUC.
Data set [3] deals with the molecule itself. Nature of the data set: SEC + other: sucrose gradient sedimentation.

The term stoichiometry N denotes the number of molecules, sites or subunits per partner or assembly.

In the case of “MthMCM RR137,160AA double mutant (natural protein)”, the stoichiometry N in data set [1] was determined as 7 subunits.
The molecule MthMCM R137A mutant (natural protein) showed a stoichiometry N in data set [2] of 14 subunits.

B1: Methanothermobacter thermautotrophicus MCM (MthMCM), wild type (natural protein, UniProt O27798 1-666, looked up)
chain: MMKTVDKSKTLTKFEEFFSLQDYKDRVFEAIEKYPNVRSIEVDYLDLEMFDPDLADLLIEKPDDVIRAAQQAIRNIDRLRKNVDLNIRFSGISNVIPLRELRSKFIGKFVAVDGIVRKTDEIRPRIVKAVFECRGCMRHHAVTQSTNMITEPSLCSECGGRSFRLLQDESEFLDTQTLKLQEPLENLSGGEQPRQITVVLEDDLVDTLTPGDIVRVTGTLRTVRDERTKRFKNFIYGNYTEFLEQEFEELQISEEDEEKIKELAGDPNIYEKIIRSTAPSIHGYREVKEAIALQLFGGTGKELDDKTRLRGDIHILIVGDPGIGKSQMLKYVSKLAPRGIYTSGKGTSGVGLTAAAVRDEFGGWSLEAGALVLGDKGNVCVDELDKMREEDRSAIHEALEQQTISIAKAGIMATLNSRCSVLAAANPKFGRFDSYKSIAEQIDLPSTILSRFDLIFVVEDKPDEEKDRELARHILKTHKEDHMPFEIDPELLRKYIAYARKNVRPVLTDEAMQVLEDFYVSMRASAADEDSPVPITARQLEALVRLSEASAKIKLKEHVEAEDARKAIKLSQACLKQVGYDPETGKIDIDKVEGRTPKSERDKFRLLLELIKEYEDDYGGRAPTNILITEMMDRYNVSEEKVEELIRILKDKGAIFEPARGYLKIV
Take B1: the “stoichiometry N” value in the data set “AUC” stood at 12.2 subunits/complex; in data set [3] it was 11.6 monomers.
